# Measured values as given in patent US20240174763A1 (NOVOPROTEIN SCIENTIFIC, published 2024).
# Like-named read-outs stand apart in the source and are kept apart here.
# T1: monkey CD73 on CHOK1-cynoCD73 cells (monkey, UniProt A0A2K5V5U7 27-549, GPI anchor at the C-terminus of the mature chain (paragraph 3 says CD73 is GPI-anchored). The propeptide 550-574 is removed.)
# T1 sequence: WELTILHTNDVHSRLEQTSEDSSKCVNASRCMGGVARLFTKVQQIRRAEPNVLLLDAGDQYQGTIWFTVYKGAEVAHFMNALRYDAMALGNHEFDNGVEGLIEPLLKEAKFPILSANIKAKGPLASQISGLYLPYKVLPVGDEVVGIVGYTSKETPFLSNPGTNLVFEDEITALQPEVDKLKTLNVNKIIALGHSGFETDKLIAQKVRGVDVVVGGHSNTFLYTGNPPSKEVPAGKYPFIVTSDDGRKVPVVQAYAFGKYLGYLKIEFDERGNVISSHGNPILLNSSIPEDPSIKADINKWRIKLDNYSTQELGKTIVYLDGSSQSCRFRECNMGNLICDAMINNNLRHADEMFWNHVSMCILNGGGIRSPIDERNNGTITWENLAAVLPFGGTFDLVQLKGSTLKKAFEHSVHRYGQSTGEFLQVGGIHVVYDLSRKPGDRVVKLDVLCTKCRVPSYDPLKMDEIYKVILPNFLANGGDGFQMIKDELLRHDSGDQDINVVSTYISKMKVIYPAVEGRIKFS
# T2: human CD73 on SK-OV-3 cells (human ovarian adenocarcinoma cells) (human, UniProt P21589 27-549)
# T2 sequence (looked up): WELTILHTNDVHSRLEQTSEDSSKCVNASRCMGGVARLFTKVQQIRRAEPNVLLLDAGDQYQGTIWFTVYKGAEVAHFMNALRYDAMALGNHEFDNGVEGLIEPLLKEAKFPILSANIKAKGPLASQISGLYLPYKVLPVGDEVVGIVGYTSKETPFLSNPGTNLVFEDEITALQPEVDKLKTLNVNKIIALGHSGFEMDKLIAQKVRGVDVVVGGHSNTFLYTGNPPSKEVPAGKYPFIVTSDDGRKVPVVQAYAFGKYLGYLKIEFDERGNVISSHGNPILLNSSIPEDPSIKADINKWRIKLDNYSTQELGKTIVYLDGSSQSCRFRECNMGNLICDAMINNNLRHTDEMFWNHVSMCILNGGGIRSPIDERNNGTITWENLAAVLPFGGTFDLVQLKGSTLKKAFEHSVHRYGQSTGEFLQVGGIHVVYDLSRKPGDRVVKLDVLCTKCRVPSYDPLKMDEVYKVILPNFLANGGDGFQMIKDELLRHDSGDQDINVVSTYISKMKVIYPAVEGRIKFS
# T3: recombinant monkey CD73 protein (monkey, UniProt A0A2K5V5U7 27-549)
# T3 construct: Monkey species not further named for the recombinant protein (the cell line is called cynoCD73)
# T3 sequence: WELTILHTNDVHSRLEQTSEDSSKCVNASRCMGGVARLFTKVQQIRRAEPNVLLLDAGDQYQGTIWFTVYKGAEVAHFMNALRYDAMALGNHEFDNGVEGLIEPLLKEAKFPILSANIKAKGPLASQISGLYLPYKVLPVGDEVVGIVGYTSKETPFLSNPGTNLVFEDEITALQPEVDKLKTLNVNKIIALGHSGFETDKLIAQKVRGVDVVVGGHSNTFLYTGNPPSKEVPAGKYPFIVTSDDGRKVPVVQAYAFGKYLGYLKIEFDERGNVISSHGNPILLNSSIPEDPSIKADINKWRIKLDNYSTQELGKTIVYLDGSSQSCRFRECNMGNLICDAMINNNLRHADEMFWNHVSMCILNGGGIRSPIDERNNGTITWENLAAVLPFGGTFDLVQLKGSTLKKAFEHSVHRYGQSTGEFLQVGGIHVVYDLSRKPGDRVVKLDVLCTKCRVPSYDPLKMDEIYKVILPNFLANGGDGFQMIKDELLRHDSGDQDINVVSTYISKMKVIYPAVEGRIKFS
# T4: recombinant human CD73 protein (human, UniProt P21589 27-547, limits assumed)
# T4 construct: Bought recombinant protein; the assays only say recombinant human CD73; also called rhCD73; recombinant hCD73 protein
# T4 sequence (looked up): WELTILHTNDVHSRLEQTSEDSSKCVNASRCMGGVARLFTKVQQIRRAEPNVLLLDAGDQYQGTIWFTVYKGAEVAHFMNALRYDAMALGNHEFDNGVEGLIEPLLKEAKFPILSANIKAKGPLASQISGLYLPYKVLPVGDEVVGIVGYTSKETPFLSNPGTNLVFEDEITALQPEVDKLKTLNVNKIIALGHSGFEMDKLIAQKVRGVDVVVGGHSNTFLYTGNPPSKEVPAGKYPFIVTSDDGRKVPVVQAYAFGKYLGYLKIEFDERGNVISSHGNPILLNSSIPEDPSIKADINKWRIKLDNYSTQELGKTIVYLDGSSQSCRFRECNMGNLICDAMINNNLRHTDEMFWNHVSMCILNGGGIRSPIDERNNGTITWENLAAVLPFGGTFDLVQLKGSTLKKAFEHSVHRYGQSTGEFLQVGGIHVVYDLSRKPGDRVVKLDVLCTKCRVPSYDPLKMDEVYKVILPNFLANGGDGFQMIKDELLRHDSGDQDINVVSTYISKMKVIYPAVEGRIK
# Tests used:
# [1] = biological target: human CD73 on SK-OV-3 cells (human ovarian adenocarcinoma cells) (human) (UniProt P21589); assay: flow cytometry on SK-OV-3 cells
# [2] = biological target: human CD73 on SK-OV-3 cells (human ovarian adenocarcinoma cells) (human) (UniProt P21589); assay: flow cytometry on SK-OV-3 cells, anti-hFc-APC
# [3] = biological target: human CD73 on SK-OV-3 cells (human ovarian adenocarcinoma cells) (human) (UniProt P21589); assay: flow cytometry on SK-OV-3 cells; remark: listed apart in the source
# [4] = biological target: human CD73 on SK-OV-3 cells (human ovarian adenocarcinoma cells) (human) (UniProt P21589); assay: flow cytometry on SK-OV-3 cells; remark: listed apart in the source
# [5] = biological target: human CD73 on SK-OV-3 cells (human ovarian adenocarcinoma cells) (human) (UniProt P21589); assay: flow cytometry on SK-OV-3 cells, anti-hFc-APC; remark: listed apart in the source
# [6] = biological target: monkey CD73 on CHOK1-cynoCD73 cells (monkey); assay: flow cytometry on CHOK1-cynoCD73 cells
# [7] = biological target: human CD73 on SK-OV-3 cells (human ovarian adenocarcinoma cells) (human) (UniProt P21589); assay: flow cytometry on SK-OV-3 cells, anti-hFc-APC; remark: listed apart in the source
# [8] = biological target: T1, monkey CD73 on CHOK1-cynoCD73 cells; assay: cell-based or functional assay
# [9] = biological target: T2, human CD73 on SK-OV-3 cells (human …); assay: cell-based or functional assay
# [10] = biological target: T3, recombinant monkey CD73 protein; assay: ELISA, recombinant monkey CD73 coated at 3 ug/mL
# Experimental: (§1) The recombinant monkey CD73 protein was packaged in plates according to a 3 μg/mL and a gradient diluted CQ137 was added.
# [11] = biological target: T4, recombinant human CD73 protein; assay: Biacore (SPR), CQ137 immobilised, CD73 protein 2.5 nM-40 nM
# Experimental: The affinity of CQ137 to recombinant hCD73 protein was determined by Biacore, CQ137 was cured.
# [12] = biological target: T1, monkey CD73 on CHOK1-cynoCD73 cells; assay: flow cytometry on CHOK1-cynoCD73 cells
# Experimental: The full length of monkey CD73 was constructed on a eukaryotic expression vector containing NEO resistance, CHO-K1 cells were transfected, G418 was used for screening to obtain a CHOK1-cynoCD73 cell strain. 4×10⁵ CHOK1-cynoCD73 cells were taken and a gradient diluted CQ137 protein was added, after incubation was performed for 1 h, the cells were washed with PBS for three times, […] (purchased from Jackson Immunology) was added, and detected by flow cytometry.
# [13] = biological target: T2, human CD73 on SK-OV-3 cells (human …); assay: flow cytometry on SK-OV-3 cells
# Experimental: 4×10⁵ cells SK-OV-3 were taken, triple gradient (0.009-20 μg/ml) dilution of CQ137 protein was added, incubated for 1 h, washed three times with PBS, Anti-hFC-APC (purchased from Jackson immunology) was added, and detected by flow cytometry.
# [14] = biological target: T3, recombinant monkey CD73 protein; assay: ELISA, plate coated with recombinant monkey CD73 at 3 µg/mL
# Experimental: as §1
# [15] = biological target: T3, recombinant monkey CD73 protein; assay: ELISA, recombinant monkey CD73
# [16] = biological target: T3, recombinant monkey CD73 protein; assay: ELISA, recombinant monkey CD73 coated at 3 ug/mL; remark: listed apart in the source
# [17] = biological target: T1, monkey CD73 on CHOK1-cynoCD73 cells; assay: flow cytometry on CHOK1-cynoCD73 cells; remark: listed apart in the source
# [18] = biological target: T2, human CD73 on SK-OV-3 cells (human …); assay: flow cytometry on SK-OV-3 cells; remark: listed apart in the source
# [19] = biological target: T4, recombinant human CD73 protein; assay: ELISA, recombinant human CD73 coated at 3 ug/mL
# [20] = biological target: T4, recombinant human CD73 protein; assay: ELISA, recombinant human CD73
# [21] = biological target: T2, human CD73 on SK-OV-3 cells (human …); assay: flow cytometry on SK-OV-3 cells, anti-hFc-APC
# [22] = biological target: T1, monkey CD73 on CHOK1-cynoCD73 cells; assay: flow cytometry on CHOK1-cynoCD73 cells; remark: listed apart in the source
molecule,measurement,setting,value
MEDI-9447 of AstraZeneca(AZ)/Medimmune (antibody),EC50,[1],23500 ng/mL
same,EC50 (read off the curve),[2],20 ng/mL
same,EC50,[3],9.63 ng/mL
same,EC50,[4],33.6 ng/mL
same,EC50 (read off the curve),[5],30 ng/mL
same,EC50,[6],4.12 ng/mL
same,EC50 (read off the curve),[6],2 ng/mL
same,EC50 (read off the curve),[7],100 ng/mL
"CQ137 antibody protein (human mouse chimeric anti-CD73 full-length antibody) (antibody, human IgG1, kappa, V domains shown) VH: EVQLQQSGPELVKPGASVKISCKASGYSFTGYYIHWVKQSHVKSLEWIGRINPYNGATTYNQNFKDKASLTVDKSSSTAYMELHSLTSEDSAVYYCARFHYGAPDYWGQGTTLTVSS VL: DILMTQSPSSMYASLGERVTITCKASQDINTYLTWFQQKPGKSPKTLIYRANILVDGVPSRFSGSGSGQDYSLTISSLEFEDMGIYYCLQYDEFPLTFGAGTKLELKR",IC50 of inhibition of CD73 enzyme activity on CHOK1-cynoCD73 cells,[8],990 ng/mL
same,IC50 of inhibition of CD73 enzyme activity on SK-OV-3 cells,[9],371 ng/mL
same,EC50 (read off the curve),[10],~200 ng/mL
same,Kd,[11],0.0865 nM
same,koff,[11],6.04e-05 s⁻¹
same,kon,[11],698000 M⁻¹ s⁻¹
same,EC50,[12],0.0999 ng/mL
same,EC50,[13],0.588 ng/mL
same,EC50,[14],217 ng/mL
"humanized CQ137 monoclonal antibody (137-6) (antibody, V domains shown) VH: QVQLVQSGAEVKKPGSSVKVSCKASGYSFTGYYIHWVRQAPGQGLEWMGRINPYNGATTYNQNFKDRVTITVDKSTSTAYMELSSLRSEDTAVYYCARFHYGAPEYWGQGTLVTVSS VL: DIQMTQSPSSLSASVGDRVTITCKASQDINTYLTWYQQKPGKAPKTLIYRANILVDGVPSRFSGSGSGTDFTLTISSLQPEDFATYYCLQYAEFPLTFGGGTKVEIKR",EC50,[15],315 ng/mL
same,EC50 (read off the curve),[16],~300 ng/mL
same,EC50 (read off the curve),[17],~8 ng/mL
same,EC50,[18],3.71 ng/mL
same,EC50 (read off the curve),[19],~300 ng/mL
same,EC50,[20],267 ng/mL
same,EC50 (read off the curve),[21],~4 ng/mL
same,EC50,[22],7.69 ng/mL
